{
  "source": "paper doi:10.1101/2023.03.31.535174",
  "binders": {"B1": {"name": "AGTGCATTA probe with distal shape mutations (series, up to six point mutations) (dsDNA)", "DNA 1": "GATAAAATGAGTAAAGTGCATTAAATGTTGTACACC", "DNA 2": "GGTGTACAACATTTAATGCACTTTACTCATTTTATC"}},
  "biological_target": "T1, AP2-I_D3 (AP2 domain 3) (Plasmodium falciparum, UniProt Q8IJW6 775-824)",
  "T1 chain": "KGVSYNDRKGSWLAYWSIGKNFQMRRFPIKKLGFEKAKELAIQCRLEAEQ",
  "assay": "EMSA",
  "data": [
    {"binder": "B1", "values": [
      {"measurement": "binding result", "value": "binds"}
    ]}
  ]
}
